Measured values: patent publication EP2028187A1 (BOARD OF REGENTS, THE UNIVERSITY OF TEXAS SYSTEM, dated 2009)
Square brackets hold non-standard residues; d marks the D form. Ends that are not written are not given here. pY = N[C@@H](Cc1ccc(OP(=O)(O)O)cc1)C(=O)O

How the values were obtained:
[1] = target: T1, GST-β3cyto (GST fusion protein of the integrin β3 cytoplasmic domain) (UniProt O54890); assay: β3 colonies divided by BSA colonies after panning
T1 sequence: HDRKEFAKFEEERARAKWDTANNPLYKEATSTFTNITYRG

[2] = target: T1, GST-β3cyto (GST fusion protein of the integrin β3 cytoplasmic domain); assay: β3 colonies divided by GST colonies after panning
[3] = target: T1, GST-β3cyto (GST fusion protein of the integrin β3 cytoplasmic domain); assay: colonies of Fyn-phosphorylated phage divided by those of unphosphorylated phage bound to the β3 cytoplasmic domain
[4] = target: GST-β5cyto (GST fusion protein of the integrin β5 cytoplasmic domain) (UniProt P18084); assay: phage colonies recovered from β5-GST-coated wells divided by those from BSA wells
[5] = target: GST-β5cyto (GST fusion protein of the integrin β5 cytoplasmic domain) (UniProt P18084); assay: phage colonies recovered from β5-GST-coated wells divided by those from GST wells
[6] = target: GST-β5cyto (GST fusion protein of the integrin β5 cytoplasmic domain) (UniProt P18084); assay: competition ELISA on GST-β5-coated plates, in the absence of calcium
[7] = target: GST-β5cyto (GST fusion protein of the integrin β5 cytoplasmic domain) (UniProt P18084); assay: competition ELISA on GST-β5-coated plates, in the presence of calcium
[8] = target: T1, GST-β3cyto (GST fusion protein of the integrin β3 cytoplasmic domain); assay: phage colonies recovered from β3-GST-coated wells divided by those from BSA wells
[9] = target: T1, GST-β3cyto (GST fusion protein of the integrin β3 cytoplasmic domain); assay: phage colonies recovered from β3-GST-coated wells divided by those from GST wells
[10] = target: Aminopeptidase A (APA, EC 3.4.11.7) on cells (UniProt Q07075 1-957, limits assumed); assay: cell-based or functional assay
[11] = target: Aminopeptidase A (APA, EC 3.4.11.7) on cells (UniProt Q07075); assay: phage binding to SK-RC-49/APA cells in suspension, phage rescued and counted (not shown)
[12] = target: GST-β5cyto (GST fusion protein of the integrin β5 cytoplasmic domain) (UniProt P18084); assay: β5 colonies divided by BSA colonies after panning
[13] = target: GST-β5cyto (GST fusion protein of the integrin β5 cytoplasmic domain) (UniProt P18084); assay: β5 colonies divided by GST colonies after panning
[14] = target: GST-β5cyto (GST fusion protein of the integrin β5 cytoplasmic domain) (UniProt P18084); assay: colonies of Fyn-phosphorylated phage divided by those of unphosphorylated phage bound to the β5 cytoplasmic domain

Sequence of Aminopeptidase A (APA, EC 3.4.11.7) on cells (UniProt Q07075) (Q07075 whole entry, the tested form may be a part): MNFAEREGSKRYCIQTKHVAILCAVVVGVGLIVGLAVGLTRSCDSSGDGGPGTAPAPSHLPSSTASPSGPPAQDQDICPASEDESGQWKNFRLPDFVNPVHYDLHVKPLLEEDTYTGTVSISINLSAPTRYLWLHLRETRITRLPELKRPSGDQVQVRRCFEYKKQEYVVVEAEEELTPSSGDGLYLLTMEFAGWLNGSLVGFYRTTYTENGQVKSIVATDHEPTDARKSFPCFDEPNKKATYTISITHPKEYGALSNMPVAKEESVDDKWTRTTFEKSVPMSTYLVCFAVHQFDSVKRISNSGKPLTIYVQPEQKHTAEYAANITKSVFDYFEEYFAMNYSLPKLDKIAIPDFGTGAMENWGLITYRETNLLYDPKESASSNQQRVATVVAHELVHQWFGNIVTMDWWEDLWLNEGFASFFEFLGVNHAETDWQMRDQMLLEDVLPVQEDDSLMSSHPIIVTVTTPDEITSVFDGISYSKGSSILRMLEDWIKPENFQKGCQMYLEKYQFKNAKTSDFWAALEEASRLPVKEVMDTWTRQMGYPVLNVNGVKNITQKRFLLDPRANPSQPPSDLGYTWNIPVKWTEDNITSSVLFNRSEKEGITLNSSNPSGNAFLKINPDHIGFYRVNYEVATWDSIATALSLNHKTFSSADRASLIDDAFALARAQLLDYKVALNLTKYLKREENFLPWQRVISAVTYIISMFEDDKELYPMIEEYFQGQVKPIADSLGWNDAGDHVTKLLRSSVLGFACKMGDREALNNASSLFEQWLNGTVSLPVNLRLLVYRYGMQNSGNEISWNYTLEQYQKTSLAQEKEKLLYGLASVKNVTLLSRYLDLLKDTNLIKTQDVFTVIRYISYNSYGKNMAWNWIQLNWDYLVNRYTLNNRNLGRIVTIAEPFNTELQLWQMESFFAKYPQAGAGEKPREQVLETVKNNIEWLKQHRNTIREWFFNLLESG
Sequence of GST-β5cyto (GST fusion protein of the integrin β5 cytoplasmic domain) (P18084 other isoform, or with tags, fused parts or gaps): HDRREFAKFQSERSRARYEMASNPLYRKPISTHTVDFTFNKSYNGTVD
Sequence of Aminopeptidase A (APA, EC 3.4.11.7) on cells (UniProt Q07075 1-957, limits assumed) (Q07075 whole entry): as the sequence (Q07075 whole entry, the tested form may be a part) above

**Q.** For RAIL[pY]RLAN (also: tyrosine phosphorylated in vitro with Fyn kinase) [Fyn-phosphorylated phage displaying … (SEQ ID NO:116)], which β3 or β5/BSA [1] is on record?
**A.** 20

**Q.** What about the β3 or β5/GST [2] of the same binder?
**A.** 1.3

**Q.** What about the Phos/Unphos [3] of the same binder?
**A.** 2.8

**Q.** With CEPYWDGWFC [phage displaying … (SEQ ID NO:106)] as the binder, how does the β5/BSA Ratio [4] read?
**A.** 400

**Q.** And the β5/GST Ratio [5]?
**A.** 3.1

**Q.** How did the β5/BSA Ratio [4] turn out when CYIWPDSGLC [phage displaying … (SEQ ID NO:105)] was run?
**A.** 193

**Q.** And the β5/GST Ratio [5]?
**A.** 5.2

**Q.** With VVISYSMPD [VISY peptide (…, SEQ ID NO:112)] as the binder, how does the % inhibition of Annexin V binding to GST-β5 [6] read?
**A.** 45%

**Q.** What about the % inhibition of Annexin V binding to GST-β5 [7] of the same binder?
**A.** 67%

**Q.** CFQNRC [phage displaying CFQNRC (SEQ ID NO:102)] was tested. Which β3/BSA Ratio [8] did it give?
**A.** 16

**Q.** And the β3/GST Ratio [9]?
**A.** 3.1

**Q.** Which β3/BSA Ratio [8] does the source give for CARLEVLLPC [phage displaying … (SEQ ID NO:94)] here?
**A.** 18.7

**Q.** And the β3/GST Ratio [9]?
**A.** 2.8

**Q.** What does the source list for SDNRYIGSW [phage displaying … (SEQ ID NO:97)]?
**A.** β3/BSA Ratio [8]: 32; β3/GST Ratio [9]: 3.3

**Q.** CEQRQTQEGC [phage displaying … (SEQ ID NO:93)] was tested. Which β3/BSA Ratio [8] did it give?
**A.** 14

**Q.** What about the β3/GST Ratio [9] of the same binder?
**A.** 4.3

**Q.** Which results are given for KQFSYRYLL [phage displaying … (SEQ ID NO:111)]?
**A.** β5/BSA Ratio [4]: 8; β5/GST Ratio [5]: 4.5

**Q.** For DEEGYYMMR [phage displaying … (SEQ ID NO:110)], which β5/BSA Ratio [4] is on record?
**A.** 29

**Q.** What about the β5/GST Ratio [5] of the same binder?
**A.** 11.5

B1: CPRECESIC (SEQ ID NO:123) soluble peptide (peptide)
peptide: CPRECESIC
modifications: disulfide (positions not given here); also: mixture of disulfide isomers and dimers
**Q.** B1 was tested. Which “APA enzyme activity on SK-RC-49/APA cells (α-glutamyl-p-nitroanilide, colorimetric), IC50” value [10] did it give?
**A.** 800 µM

**Q.** CWDQNYLDDC [phage displaying … (SEQ ID NO:109)] was tested. Which β5/BSA Ratio [4] did it give?
**A.** 100

**Q.** What about the β5/GST Ratio [5] of the same binder?
**A.** 1.5

**Q.** CNLSSEQC [phage displaying CNLSSEQC (SEQ ID NO:103)] was tested. Which β3/BSA Ratio [8] did it give?
**A.** 62

**Q.** What about the β3/GST Ratio [9] of the same binder?
**A.** 2.7

**Q.** What does the source list for GLDTYRGSP [phage displaying … (SEQ ID NO:96)]?
**A.** β3/BSA Ratio [8]: 48; β3/GST Ratio [9]: 4.1

**Q.** Which β5/BSA Ratio [4] does the source give for SDWYYPWSW [phage displaying … (SEQ ID NO:113), selected on β5] here?
**A.** 304

**Q.** And the β5/GST Ratio [5]?
**A.** 2.4

**Q.** CYNLCIRECESICGADGACWTWCADGCSRSC [phage displaying … (SEQ ID NO:125)] was tested. Which fold enrichment relative to SK-RC-49 parental cells [11] did it give?
**A.** 6 fold

**Q.** What does the source list for CLRQSYSYNC [phage displaying … (SEQ ID NO:104)]?
**A.** β3/BSA Ratio [8]: 3.2; β3/GST Ratio [9]: 2.4

**Q.** With CLGQCASICVNDC [phage displaying … (SEQ ID NO:126)] as the binder, how does the fold enrichment relative to SK-RC-49 parental cells [11] read?
**A.** 6 fold

**Q.** YEWWYWSWA [phage displaying … (SEQ ID NO:98)] was tested. Which β3/BSA Ratio [8] did it give?
**A.** 28.1

**Q.** What about the β3/GST Ratio [9] of the same binder?
**A.** 2.2

**Q.** Which fold enrichment relative to SK-RC-49 parental cells [11] does the source give for CPKVCPRECESNC [phage displaying … (SEQ ID NO:127)] here?
**A.** 6 fold

**Q.** How did the β3 or β5/BSA [12] turn out when TLRK[pY]FHSS (also: tyrosine phosphorylated in vitro with Fyn kinase) [Fyn-phosphorylated phage displaying … (SEQ ID NO:121)] was run?
**A.** 7.3

**Q.** And the β3 or β5/GST [13]?
**A.** 5.6

**Q.** And the Phos/Unphos [14]?
**A.** 1.8

**Q.** Which β3/BSA Ratio [8] does the source give for SDWYYPWSW [phage displaying … (SEQ ID NO:100), selected on β3] here?
**A.** 157

**Q.** What about the β3/GST Ratio [9] of the same binder?
**A.** 2.1

**Q.** What does the source list for KVSWYLDNG [phage displaying … (SEQ ID NO:99)]?
**A.** β3/BSA Ratio [8]: 20; β3/GST Ratio [9]: 2.1

**Q.** Which results are given for YDWWYPWSW [phage displaying … (SEQ ID NO:95)]?
**A.** β3/BSA Ratio [8]: 163; β3/GST Ratio [9]: 5.6

**Q.** Which β5/BSA Ratio [4] does the source give for VVISYSMPD [phage displaying … (SEQ ID NO:112)] here?
**A.** 28

**Q.** What about the β5/GST Ratio [5] of the same binder?
**A.** 3.8
